Square brackets hold non-standard residues; d marks the D form. Ends that are not written are not given here. * marks the point of attachment. Biotin = O=C1N[C@H]2[C@H](CS[C@H]2CCCCC(=O)*)N1; pT = C[C@@H](OP(=O)(O)O)[C@H](N)C(=O)O; pS = N[C@@H](COP(=O)(O)O)C(=O)O

In experiment [1] the target is T1, GST–Dpb11-N (BRCT1&2, aa 1–275) (S. cerevisiae, UniProt P47027 1-275).
T1 sequence (looked up): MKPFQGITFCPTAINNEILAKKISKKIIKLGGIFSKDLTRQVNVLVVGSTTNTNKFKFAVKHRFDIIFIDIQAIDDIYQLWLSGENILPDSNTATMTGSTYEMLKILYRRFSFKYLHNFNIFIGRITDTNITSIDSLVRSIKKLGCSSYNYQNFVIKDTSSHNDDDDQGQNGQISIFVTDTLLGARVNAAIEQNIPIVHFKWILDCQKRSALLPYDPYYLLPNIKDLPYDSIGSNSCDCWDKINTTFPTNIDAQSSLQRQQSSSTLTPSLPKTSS
The experiment can be described thus: pull-down.

Experiment [2] concerns the target immunopurified Mec1–18myc–Ddc2 (S. cerevisiae, UniProt P38111 1-2368; Q04377 1-747). In words: pull-down.

immunopurified Mec1–18myc–Ddc2, sequence (P38111 whole entry, chain 1 of 2): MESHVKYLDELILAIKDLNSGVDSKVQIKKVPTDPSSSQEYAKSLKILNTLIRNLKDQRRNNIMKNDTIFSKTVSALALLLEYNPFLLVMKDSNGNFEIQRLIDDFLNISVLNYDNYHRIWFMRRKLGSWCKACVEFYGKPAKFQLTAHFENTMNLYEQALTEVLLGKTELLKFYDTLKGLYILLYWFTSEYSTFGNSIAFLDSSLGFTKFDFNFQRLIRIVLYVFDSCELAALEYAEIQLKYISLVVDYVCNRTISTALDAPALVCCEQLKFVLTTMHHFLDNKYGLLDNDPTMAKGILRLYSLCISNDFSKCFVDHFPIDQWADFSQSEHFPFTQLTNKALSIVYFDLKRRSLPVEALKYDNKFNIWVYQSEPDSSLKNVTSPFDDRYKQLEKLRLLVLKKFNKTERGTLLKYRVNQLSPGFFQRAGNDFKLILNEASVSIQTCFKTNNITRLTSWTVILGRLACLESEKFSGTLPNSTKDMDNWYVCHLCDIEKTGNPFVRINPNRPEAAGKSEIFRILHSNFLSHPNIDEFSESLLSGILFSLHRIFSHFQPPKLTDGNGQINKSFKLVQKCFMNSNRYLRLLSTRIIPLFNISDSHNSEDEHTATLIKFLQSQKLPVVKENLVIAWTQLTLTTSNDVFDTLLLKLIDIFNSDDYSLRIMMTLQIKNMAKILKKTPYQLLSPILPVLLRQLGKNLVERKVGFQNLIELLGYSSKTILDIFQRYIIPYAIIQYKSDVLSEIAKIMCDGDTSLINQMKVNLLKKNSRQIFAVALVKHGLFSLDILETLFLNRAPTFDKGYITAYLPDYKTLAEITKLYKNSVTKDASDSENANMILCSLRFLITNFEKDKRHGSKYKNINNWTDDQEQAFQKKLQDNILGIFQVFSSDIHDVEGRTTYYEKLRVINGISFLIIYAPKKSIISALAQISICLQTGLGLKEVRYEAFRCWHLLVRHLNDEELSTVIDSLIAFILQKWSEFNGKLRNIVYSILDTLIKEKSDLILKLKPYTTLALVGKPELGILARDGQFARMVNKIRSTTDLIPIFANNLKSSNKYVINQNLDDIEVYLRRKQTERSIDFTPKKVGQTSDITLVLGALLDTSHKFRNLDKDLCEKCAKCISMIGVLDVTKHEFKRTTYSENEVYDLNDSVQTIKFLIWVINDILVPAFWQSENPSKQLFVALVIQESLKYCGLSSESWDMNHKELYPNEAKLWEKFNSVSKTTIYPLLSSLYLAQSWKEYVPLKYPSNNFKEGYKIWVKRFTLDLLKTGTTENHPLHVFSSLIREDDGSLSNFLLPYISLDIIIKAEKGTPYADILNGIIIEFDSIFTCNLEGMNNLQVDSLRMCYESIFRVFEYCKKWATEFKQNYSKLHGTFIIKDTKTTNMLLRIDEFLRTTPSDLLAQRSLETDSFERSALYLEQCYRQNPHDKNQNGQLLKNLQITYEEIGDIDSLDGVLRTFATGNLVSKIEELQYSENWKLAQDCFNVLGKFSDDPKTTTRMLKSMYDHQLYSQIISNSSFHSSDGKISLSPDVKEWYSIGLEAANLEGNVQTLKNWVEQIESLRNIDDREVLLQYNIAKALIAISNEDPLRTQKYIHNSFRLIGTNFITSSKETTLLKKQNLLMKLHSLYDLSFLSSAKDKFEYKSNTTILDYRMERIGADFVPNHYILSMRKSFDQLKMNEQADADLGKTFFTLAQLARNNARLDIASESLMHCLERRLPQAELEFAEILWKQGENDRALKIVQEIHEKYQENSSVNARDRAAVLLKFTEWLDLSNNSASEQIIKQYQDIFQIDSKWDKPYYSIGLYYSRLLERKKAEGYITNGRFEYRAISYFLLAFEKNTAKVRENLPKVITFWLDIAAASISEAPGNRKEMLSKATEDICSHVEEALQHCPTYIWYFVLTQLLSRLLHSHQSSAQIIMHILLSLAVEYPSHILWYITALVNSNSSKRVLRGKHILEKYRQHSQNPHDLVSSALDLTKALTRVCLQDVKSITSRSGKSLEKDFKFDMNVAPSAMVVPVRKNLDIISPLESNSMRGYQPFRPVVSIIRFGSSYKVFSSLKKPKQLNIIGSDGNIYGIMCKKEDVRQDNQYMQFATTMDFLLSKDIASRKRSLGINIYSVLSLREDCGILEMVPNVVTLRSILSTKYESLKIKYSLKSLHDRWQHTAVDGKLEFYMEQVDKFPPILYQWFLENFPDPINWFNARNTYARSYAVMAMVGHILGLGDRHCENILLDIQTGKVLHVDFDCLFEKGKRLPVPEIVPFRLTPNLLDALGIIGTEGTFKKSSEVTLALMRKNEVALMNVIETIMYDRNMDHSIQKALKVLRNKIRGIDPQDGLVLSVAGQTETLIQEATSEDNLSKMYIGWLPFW
immunopurified Mec1–18myc–Ddc2, sequence (Q04377 whole entry, chain 2 of 2): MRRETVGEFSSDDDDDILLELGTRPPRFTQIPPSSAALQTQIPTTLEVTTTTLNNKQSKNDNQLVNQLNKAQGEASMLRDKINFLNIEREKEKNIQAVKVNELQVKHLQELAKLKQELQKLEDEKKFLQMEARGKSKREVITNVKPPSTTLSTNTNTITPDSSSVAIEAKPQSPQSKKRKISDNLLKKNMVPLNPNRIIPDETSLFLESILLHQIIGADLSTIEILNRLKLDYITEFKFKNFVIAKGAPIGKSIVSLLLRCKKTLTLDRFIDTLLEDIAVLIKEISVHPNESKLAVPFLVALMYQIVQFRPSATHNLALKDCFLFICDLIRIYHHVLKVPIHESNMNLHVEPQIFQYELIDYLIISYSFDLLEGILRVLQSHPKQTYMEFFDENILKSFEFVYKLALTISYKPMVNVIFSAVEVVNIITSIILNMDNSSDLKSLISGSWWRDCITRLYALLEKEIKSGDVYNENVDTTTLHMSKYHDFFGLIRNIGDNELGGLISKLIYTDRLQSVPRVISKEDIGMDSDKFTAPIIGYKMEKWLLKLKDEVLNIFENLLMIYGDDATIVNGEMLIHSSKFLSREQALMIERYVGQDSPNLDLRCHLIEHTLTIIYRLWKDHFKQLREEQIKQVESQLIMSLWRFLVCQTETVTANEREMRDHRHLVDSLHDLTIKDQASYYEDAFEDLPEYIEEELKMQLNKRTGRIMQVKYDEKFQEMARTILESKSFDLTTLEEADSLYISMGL

B1: Rad9 phospho-T474 peptide (biotinylated 35mer) (peptide, UniProt P14737 449-483, looked up)
peptide: TGQTEEIKTQIINSPEQNALNATFE[pT]PVTLSRINF
modifications: not fully specified (residue 23, N-terminus)
Consider B1, for which, in experiment [1], the binding result was “binds”.

B2: recombinant, full-length, His-tagged Dpb11 (natural protein, S. cerevisiae, UniProt P47027 1-764, looked up)
chain: MKPFQGITFCPTAINNEILAKKISKKIIKLGGIFSKDLTRQVNVLVVGSTTNTNKFKFAVKHRFDIIFIDIQAIDDIYQLWLSGENILPDSNTATMTGSTYEMLKILYRRFSFKYLHNFNIFIGRITDTNITSIDSLVRSIKKLGCSSYNYQNFVIKDTSSHNDDDDQGQNGQISIFVTDTLLGARVNAAIEQNIPIVHFKWILDCQKRSALLPYDPYYLLPNIKDLPYDSIGSNSCDCWDKINTTFPTNIDAQSSLQRQQSSSTLTPSLPKTSSLLNKFKPKGEKIWDKAMSLQQHSKTNFSVLGQSPLSINNKQEDLSDNSTLIFKNCAFIIHHIFPGNHRSILTKIVVQNGGKIETSYLSGIYDHSYYIIPSNKALDSFNDLPEIIDDNDGIVTEFFIERCLYYQKLLHPIDLWSKPFLSTIEFQVSSSSKLLHHEFSSSPFLNVTITGFSGVELLHLTKVLNLLKPMGINYVEYLNKSTDILLINLAALPSIPKTHPLWSNEFSDLFTQFCINNNNDDPGDNNRKDFQNNSILRNSMKRKIEYIKKFHSIPVVTPAFIFKLLSAASGENNEIFLNNIKWCIICPRGHKDDFKCKIKKPYYTSISSEKKYQNNDPKIDKTILLKRNNSSLSEHSMKDTKNELLQKIRETDSGRKKRSVSSSIMDVSSERQMPDTKRIKLESLPKNFVPKQIKRTTSWGTIMSENVPTEQPTAISNPEEIPRTEEVSHTQVTYGSIQDKKRTASLEKPMRRQTRNQTKELDS
Turning to B2, the binding result in experiment [2] is reported as “binds”.

B3: Rad9 phospho-S462 peptide (biotinylated 35mer) (peptide, UniProt P14737 437-471, looked up)
peptide: {Biotin-EAhx}-GISAQKGPVFHSTGQTEEIKTQIIN[pS]PEQNALNAT
Turning to B3, the binding result in experiment [1] was “binds”.

The record behind these values is article PMC3243626 (The EMBO Journal, 2011).
